The DeepSol protein solubility set

assay: soluble on expression in E. coli; label from the status in PepcDB or PDB records

| Sequence | soluble on expression in E. coli |
| --- | --- |
| MGSDKIHHHHHHMTDPRILSLQQAVPALRLKTEPADLEHYGRDWTRRWTPNPLAIALPGSVEEVQAVVRWANTHAVAVVPSGGRTGLSGGAVAANGELVLSLERLNKPLAFDAVDRTLTVQAGMPLEAVHNAAREHGLVYPVDFAARGSCSIGGNIATNAGGIRVIRYGNTREWVAGLSVVTGTGELLHLNNALVKNSSGYDFRHLMIGSEGTLGIVVEATLRLTDPPPPSNVMLLALPSFDVLMQVFAAFRAQLRLEAFEFFTDRALEHVLAHGAQAPFAEVHPYYVVTEFAAGDEAQEAAAMAAFEACMEQGWVSDGVISQSDAQAAQLWRLREGITEALARYTPYKNDVSVRISAMPAFLAETQALLHDAYPHFDVVWFGHIGDGNLHINVLKPDATSQADFITACEQVTKLLAQSLQRFDGSISAEHGIGLVKKPYLWSTRSAAEIALMRGIKHVLDPHLLLNPGKLFDMDEVPGATPAG | not soluble |
| MGSDKIHHHHHHMTDVHASTQALKPARLLADSPSRFPGESAEYRRARNDLLVEEIELRRHIERVAAQRRALPAGGVVPEDYRFMGEAGPVALSEMFGAHDTLVTYNWMFGPQRVRPCPMCTSLLSAYDGEMPDILQRVAFAVIARAPIERLVAFGKERGWRHLRLYSSGGNSFNRDYAAEDPAGDDHPAFNVFTRSGGTVRHFWAEEMGPSTADPGQDPRGAPDVMPIWTVLDMTPGGRGTDWYPKLEYDTAPG | not soluble |
| MGSDKIHHHHHHMTEEVPSMDTAPSVGDVREYWNRNPLLSHELASPGSPAFFASLDTAKREDSDRFAMDYWEFGQWAGQRVLDIGCGPGWLTVQYARGGAQVDSVDLTPRAVELAQAHLALHGQSATVREGNAEELPFPDDQFDLVAASGVLHHTPDTQATFREAFRVTKPGGQGKITLYRKGILHHPAVFAMTRIAMRLFGVKHPGADLGKNSSDVDDFIRRYDGDGNPVGIGKTDADWAADLAAAGWVVQGHEVHFFPRRFLPCARLIPVWLHEFLDTRLGTMVYFRLRKPIISGK | not soluble |
| MGSDKIHHHHHHMTEGLTIGIDVGGTNLRFGVFRGNELLDSTRSEVDLREKCRQAPDPEGAAALVTTLLTEGIADLRRHHPNIARVGIAFPGFIDDDGVLLQSPNIPQLIQFDLQTAVGAACQLPVLVENDANAAGYGEFWEERQEHPELQNLLYVGLGTGVGGGWIHQGRPWRGDHGSAMEIGHIIVVPGGRRCGCGNQGCLEQYASARGVQSTYVELTGTAPDAMVIAQMAGDAHSEAASAFRMAGGYLGQVLAHVVKVTDVAVVRIGGGMSAAWDRFAPAMLQRLDADMIPALRGNVEVKRGNDDDLAGMRGAALLADQEFLHS | not soluble |
| MGSDKIHHHHHHMTEGSQQKRVVVVGAGWAGLGATYHLAKQGYDVTLLEAGPYPGGLVAGWQTTGGKSVEAGIHGFWYPYRNIFALINELNIHPFTTWTRSAQYSPAGLEVESPIFQDLPRLPTPLGTFIYTQFQRLPLIDRLSALPLLYAVVDFDNSDAAWRRYDSVTARELFKDFGVSARLYKEAFEPMLLVGLFAPGEQCSAAATLGMLYFFILAHQADFDVVWCRGTVGEKIFRPWVERIEKAGAKVLPKHRVTDLIIDSNNQATGVVCGNEVFDADAVIFAVGITGMKKIVSSSPSLQSRAEFRNLHNLGAIDVLATRLWFDRKIDIPRPSNACFGFDNTTGWTFFDLNALHDEYKNELGTVIEADFYHANQFLNWSDAEIVATVQNYLTTCVPGFAQAKVIDSSVIRLPQAVTHFAPGSYPYMLPAKTSFDNVFMSGDWIVNRHGSWSQEKAYVTGLEAANLVVSHLGEGTPVEILPVEADETHIQVARSLNQTVRKLGKFILPNFWLP | not soluble |
| MGSDKIHHHHHHMTEITTLSQFLTTAKTQFQVYELGRRVQHIDMLAFHQIESLVTPYPYPIQGHAQFAVVFWNESQQHFIWFLKLPLDEQGLLSPAPRSQFIEMVLTALGQDPTQPLTDEQQDRLANNPFSFKPSQEKLSVFNALVRKQLGLSASIQYEFAMQYLSGQIAPSEWQHIGMQGLSDVCVRLGELDHEQHILASFDQAAIEVQIALCQCLEHLQLTEAIAMKIFSKFITAPNEYQAYYLRALASQTELSQQALLHLQQTDRLDANALISIAGRNWPILKQALSRSIYLEALALQPQAFFNQIFADIVAIPNLRNHLLGELRNPNRSVQLSQAIGGLFKAASK | not soluble |
| MGSDKIHHHHHHMTEKATLAKQILHFNETLSSNSMDLPAGYRVINPYEGDQKELVRNITTRFYQKYYNDTKPRRIIFGSSPARRGSAVTGVPFEDAKHLQSETGIFIDTFYINQSSSDFLYDVMNEYGGCEQFYSDFYMNFVCPLGIVRINAKGNEVNCNYYENKQLREALMPFIIESIRSQIDFGMDTSVCYCIGSGENFKFLSRINEEHHFFETIIPLEHPRFIMQYNSKNKDTYMEKYLCALKI | not soluble |
| MGSDKIHHHHHHMTFEEFKDRLFALAKKNGVEVQISFLETREFSLRLANGDLDQYTDAGKFNVEIKVLKDGKTGTFRTQVLENPEKCFEEALSNLQVKDSEEKEYFFEGGKEYREMETYVGRFEKLSVKEKMDMAKKAHESAAKDERVVMVPTVMYKDMVIKKIITNTLGLDVESQMDGGFLFAMAIARDANPRSGSWYELARTPEDLNPEEIGKRAAEEAISLIGSKTIPSGKYPVLMRNTALLDLMEMFIPMISAENVQKNLSPLKGKLGEQVGNPAVSIKDLPYHPKGLSSTPFDDEGVPTTEKFVLENGVLKTFLHNLKTARKEGVEPTGNGFVGGIRPVNLMLMPGEKSFEELLKEMDRGVVITEVEGMHAGANSISGEFSLFAKGYWVENGEIAHGVEDITISGNFLDLLRKIVLVGNDVKVSQHTIAPSVLVEVLDVAGK | soluble |
| MGSDKIHHHHHHMTFNVPDVKPLINDEFAGEAPKRALSYIANKRSAGMPVAGTYCGYAPMEVIRAVGAVPAVLCAFANKTIPAAEAVLPANLCPLIKSSYGFILTDTCPFFALSDAVVAETTCDGKKKMFELIFSHRPMFVMDLPQLPDEVEARANWATMISKLKGFLENTFGTFGTSEGIEAEIQATNIKNRLMRRVFGYAEKKPPLLSWSELYELCFLAQVATTEDLLPVFKEVFERLEEREAKGIYYGAPSSPRVLVTGCPVGGDSTKVFRIIEEAGGVVVAMDSCSGMKPFIADIEEKTGNPIDSVARHYLEIPCSCMTPNTRRLTELDKALAAFQPDAVVEVVLHACHSYNIEAIKIMNYLKEKHNLPYLKIVTDYSEGDVEQIRTRVEALLESI | not soluble |
| MGSDKIHHHHHHMTGKTVDLKLPAKLDGLFKPCRYKVMYGGRGGGKSHGAASALLALGAQRPLRILCAREIQKSMRDSVHRLLKDKVAQLGLGHFYEITDFEIRGANGTLFVFSGLQSHTVDSIKSFEGIDIVWVEEGHGVSKKSWDVLTPTIRKEGSEIWITLNPDMETDETYRRFIAMPSEDTWLCEINWRDNPWFPEALNRERLKAQRSMNKEDYGNIWEGRPRMVSEGAVYRHEIQDAFHSGRVTLVPYDSSLPVHTVWDLGWNDAMTIGLVQRDLTSVRIIGYIEDTHRTLDWYVAELEKLPYRWGTDFLPHDGRTRNFQTGKSTMEILTGLGRKSVFVQNATGIEEGIRAARMLFPKVYFDKDKTARLLECLKRYGRQIHAKTGVAMGPLHDEYSHGADMFRYLAQAVDLMDTGSNTGYTETPVSDWRLY | not soluble |
| MGSDKIHHHHHHMTGLSQSQASPMQIQPGNAAFNPWTDAALDTIRDVNQALTLYAEMRVVPAHHDAFLAAIDTVSAKLRVLPGFLSLALKQMSGDSTMVKNYPETYKGVLATAYLDGVAAGTQPYFYNLFVRFADGRAARAAGFEALFETHIHPLLHAMAPRGGDGPELLAYRAVLQSVVAGDRHAIYRGAEEIRSFLRRPVELPERETVTVENHVMVPEDKHAAWEPQVAILLQVAQDTFEPQDEPSGVGLPGARDNRYYRKALSTEILRNAHADGGLRAYIMHGVWESVWDHENSHLDPRFLAAAGPVGAAAVVGPVEPFYLTRRLVVAD | not soluble |
| MGSDKIHHHHHHMTIFERSKKGRKAFRLPESDIPEYSLPDRFLRRTPPELPEVSEPDLVRHYTNLARKNYSVDLGIYPLGSCTMKYNPKLNEKAANLEGFREIHPYQPVETVQGSLRLMYELKKMLCEITGMDDMTLQPAAGAHGELTGMLIVREYFKNRGDTGRKKVLVPDSAHGTNPASASMVGFEVVEIKSKNGMVDVEDLKKLLDEEVAAVMLTNPNTLGLFEKDILKIAEMTHECGALLYYDGANLNAIMGKVRPGDMGFDIVHLNLHKTFSTPHGMGGPGSGPVGVKKHLVDFLPFPQVKKNGELYELFVPEKTIGRVRSFFGNFPVLVKAYTYILTMGRDGLERVSEMAVLNANYLKKKIEKFLEIPYNGFCMHEFVASAEKVFRETGVRTLDIAKRILDFGVHPPTVYFPLIVPEALMIEPTETENKETLDKYAEILERVVKEAYENPDALKNAPHNTPVRRVNEVLASKKPVFRWRG | not soluble |
| MGSDKIHHHHHHMTILDHKIDFAVILSVTKANPNGDPLNGNRPRQNYDGHGEISDVAIKRKIRNRLLDMEEPIFVQSDDRKADSFKSLRDRADSNPELAKMLKAKNASVDEFAKIACQEWMDVRSFGQVFAFKGSNLSVGVRGPVSIHTATSIDPIDIVSTQITKSVNSVTGDKRSSDTMGMKHRVDFGVYVFKGSINTQLAEKTGFTNEDAEKIKRALITLFENDSSSARPDGSMEVHKVYWWEHSSKLGQYSSAKVHRSLKIESKTDTPKSFDDYAVELYELDGLGVEVIDGQ | not soluble |
| MGSDKIHHHHHHMTISEARLSPQVNLLPIKRHSNEEVEETAAILKKRTIDNEKCKDSDPGFGSLQRRLLQQLYGTLPTDEKIIFTYLQDCQQEIDRIIKQSIIQKESHSVILVGPRQSYKTYLLDYELSLLQQSYKEQFITIRLNGFIHSEQTAINGIATQLEQQLQKIHGSEEKIDDTSLETISSGSLTEVFEKILLLLDSTTKTRNEDSGEVDRESITKITVVFIFDEIDTFAGPVRQTLLYNLFDMVEHSRVPVCIFGCTTKLNILEYLEKRVKSRFSQRVIYMPQIQNLDDMVDAVRNLLTVRSEISPWVSQWNETLEKELSDPRSNLNRHIRMNFETFRSLPTLKNSIIPLVATSKNFGSLCTAIKSCSFLDIYNKNQLSNNLTGRLQSLSDLELAILISAARVALRAKDGSFNFNLAYAEYEKMIKAINSRIPTVAPTTNVGTGQSTFSIDNTIKLWLKKDVKNVWENLVQLDFFTEKSAVGLRDNATAAFYASNYQFQGTMIPFDLRSYQMQIILQELRRIIPKSNMYYSWTQL | not soluble |
| MGSDKIHHHHHHMTISQQAVLAATAITKTFGAHVALHTIDIAFRPGEVHALLGENGAGKSTLIKILTGAYTPDAGTVLVDGAPMSFSTPQQAQAAGIGTVYQEVNLLTNMTVADNLFIGRQPRRFGLVDHRTMEREARRILSGYGLDIDVRAELATFSVAVQQIIAIARAVELSGKVLILDEPTASLDRSEVLKLFEIVRGLKARGLAIVFITHFLDQVFELCDHATVLRNGKLVGSQPIDTLNRTTLVRMMLGKDLSLHHDAVAGIEAEVGESLMQFTGYGLDGKVQPFTLTIHKGEVIGVAGLLGSGRTEMARLMFGIDSADKGELTLNGASFKIRSPRQAIDLGFGFCPEDRKADGIFGDLSVRENIIIAMQAKLGWLRTLSYDEQMEIAGQFIEALDIRTASAELPIKLLSGGNQQKAILARWLATDPRFLILDEPTRGIDVGAHAEIVRMISRLREDGLALIVISSELDEVVSYSSRIVVMRDRAMVAELHGADIAPDVIVQTIAAQSNTPAQSEGAFS | not soluble |
| MGSDKIHHHHHHMTKHLYIDEYGSFVGKTSERLTVSQGGELKAEIPLSRLKSVNILKGGISLSSDIIEACSLRGIKIFFLDFRNVAHTAITSTANHAVANVRKAQFLTIESNHGREIARTLIVGKLKNQRATLQYFYKYLKNTDKQSKKLESAIEKIKETIESLKNIELSNNKHWSQIIMGKEGGMAAIYFDAIGAELLEECDFTTRIGRGAEDIMNSALNYGYAILTSFVWQSIINAGLEAYAGVLHTNRPGKPSLVLDVMEEYRAWVVDRNIIKLRSSLAGKKELDAELKKKIITEINATMNKKHLYNGKNLSLQGVMQRQVYRLVGAFMQQNRYKSYIFKW | not soluble |
